Assay results published in the supplement of paper PMC9170038.

How the values were obtained:
MS2 coat protein [1] = assay: apparent KD of MS2 coat protein, switch OFF state (with FMN for OFF switches, without FMN for ON switches); designed switch direction (-1 OFF switch, 1 ON switch): -1; higher = weaker reporter binding; conditions: FMN input: 0 or 200 uM; Eterna round: R93 (includes R88 designs)
How it was run: (§1)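 For every design, apparent KD is the median of normalised binding-curve fits from its clusters. The RNA switches were transcribed on-chip from Illumina sequencing clusters and titrated with SNAP-549-labelled MS2 coat protein (twofold steps, 0.7 or 1.5 nM to 3 µM; 0.8–1.5 h to 10–20 min per step). Titrations used 100 mM Tris-HCl pH 7.5, 80 mM KCl, 4 mM MgCl2, without or with constant ligand.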

MS2 coat protein [2] = assay: apparent KD of MS2 coat protein, switch ON state; designed switch direction (-1 OFF switch, 1 ON switch): -1; higher = weaker reporter binding; conditions: FMN input: 0 or 200 uM; Eterna round: R93 (includes R88 designs)
How it was run: as §1

Sequence | apparent KD of MS2 coat protein (MS2 coat protein [1]) [nM] | apparent KD of MS2 coat protein (MS2 coat protein [2]) [nM]
AAAAAAGCAGGAUAUACGAACAUGUCGAAAGACGUGAAGGGACAUGAGGAUCACCCAUGUAGAAGGGUUAAGAA [Mat - Exclusion 2 - JL mod - D75] | 55 | 166
AACAUGUCAGGAUAUGUGUAAAGAAUAAAAGAAAUAACAACACAGAAGGGACAUGAGGAUCACCCAUGUCAACA [May 32] | 29.3 | 26.1
AGUUGGCGAGGAUAUACAUGAGGAUCACCCAUGUGAAAUAAUGAAAAAGUAGGGAAAAGUAGAAGGCGCUGACA [73%, Moding Norbert Elias, 20] | 143 | 37.7
AAAAAGUCAGGAUAUACGGGAGUGCGAAAGCACAAAAAAAAACAUGAGGAUCACCCAUGUAGAAGGGACAAGAA [Married to this design, 61% 5] | 34.5 | 46.1
CAGUACUGAGGAUAUACAUGAGGAUCACCCAUGUAAAAAAGCUACGAAAGUAGCAAAUGUAGAAGGCAGUACUG [Ex3: 804] | 22.8 | 15.5
AAAAAGAGAGGAUAUGCAGGAGGUAAGGUCGAAAAAAAAAAACAUGAGGAUCACCCAUGUAGAAGGUUUAAAAA [Ecls2-VII] | 23.9 | 23.6
AAAACGUCAGGAUAUACAGAAGAGAUCACGAAAAAAAAAAAACAUGAGGAUCACCCAUGUAGAAGGGACAAAAA [Ex2 Malc#3] | 136 | 117
AACAGUACAGGAUAUACAUGAGGAUCACCCAUGUAGAGAAAAUAAAACAAAAAUAAAAGUAGAAGGGUACUGGA [Ruby 47] | 26.4 | 26.6
AAAGAUGGAGGAUAUACAUGAGGAUCACCCAUGUGGAAAAUAAAUUGGGAAAAAGAAAGUAGAAGGCCAAAAAA [Ex 3 May 41] | 94.7 | 45.5
GAAAAACAUGAGGAUCACCCAUGUAAGGAUAUGCUAAAAAACACGGAAAAACGUGAUAGCAGAAGGUACAAAAA [Mat - Exclusion 1 - Eli mod - D89] | 36.5 | 24.1
ACGUAGAGAGGAUAUACGAACAUGUCAAAAGACGUGAAGGGACAUGAGGAUCACCCAUGUAGAAGGCUCUACGA [Mat - Exclusion 2 - JL mod - D8] | 172 | 54.8
ACAGCGUGAGGAUAUACAUGAGGAUCACCCAUGUGAAACAGGAAAAACUGAAAGACAUGUAGAAGGCACGCUGA [Exclusion 3.3 (Janderson's 'Tweaking Eli' some more )] | 28.7 | 263
UUUAUGUGAGGAUAUGUACAGAAAAAAAAGGGUGUAACUGUACAGAAGGCACAUGAGGAUCACCCAUGUGCAUU [EX4 382: S S Pseudoknot 7] | 21.8 | 27.9
AAAAGGCGAGGAUAUACAUGAGGAUCACCCAUGUAAGUAAGCCUGGCUGAAACUAAAUGUAGAAGGCGCAAAAA [Mat - Exclusion 3 - Neo mod - D73] | 56.2 | 18.2
UGUUGGCGAGGAUAUACAUGAGGAUCACCCAUGUGAGAGAAAAAAGUGAGAAAGAAAAGUAGAAGGCGCUGACU [salish99-ex3-08] | 211 | 42.7
AAAUGACUAGGAUAUACAUGAGGAUCACCCAUGUGUAUAAAUAAAUACACAAAAGAAAGUAGAAGGAGUCAAAG [Mat - Exclusion 3 - Mayanna mod - D123] | 60.5 | 20.6
AAGAAACAUGAGGAUCACCCAUGUGAGGAUAUCCAAAAGAAAAGAAAAGAAAGAAGAAGGAGAAGGCACAAAGG [Nikare] | 159 | 88.5
GGUUGGCGAGGAUAUACAUGAGGAUCACCCAUGUGAGAGAAAAAAGUGAGAACGAAAAGUAGAAGGCGCUGACG [salish99-ex3-25] | 1340 | 23.5
UGCAGGUGAGGAUAUGCGGGCGAGCUAACAUAAGCAUCGAAGCAGAAGGCACAUGAGGAUCACCCAUGUAGUCC [Ex4_Neo] | 27.2 | 21
GUGUACAGAGGAUAUAUAUGAGCUAGGAAACUAGCAACUUCACAUGAGGAUCACCCAUGUAGAAGGCUGUACAC [Ex2: 720] | 14.3 | 14.1
AACUGACAUGAGGAUCACCCAUGUCAGGAUAUGACUUGAAAAAAAAAAAAAAAACAUGUCAGAAGGGACAUGGG [Design 55 :P Sub-opt HB] | 17.9 | 26.8
AAGAACACAGGAUAUACAUGAAAGAAAGAAAAGAAAAGAAAACAUGAGGAUCACCCAUGUAGAAGGGUGUAGAA [EteRNA is fun!] | 532 | 454
AAAACACAUGAGGAUCACCCAUGUCAGGAUAUACGAGAAAGAAAAGAAAAGAAAAGAAGUAGAAGGGACUAGAA [Exclusion1 Malc#3] | 22.4 | 15.7
